Entries after “also recorded” stand apart in the source; their conditions may differ.
Assay: microtiter isotope tracer [3H]-cocaine hydrolysis assay of immobilized butyrylcholinesterase variants
Type: biochemical
Conditions: for cocaine hydrolysis activity compared to butyrylcholinesterase (in words): compared to human butyrylcholinesterase
Description: At the conclusion of the isotope tracer assay, an aliquot of the reaction mix is acidified in order to take advantage of the solubility difference between the product and the substrate at pH 3.0. […] Prospect, Ill.) while [3H]-cocaine is not.
The supernatants isolated from each of the butyrylcholinesterase variant library clones contains variable butyrylcholinesterase enzyme concentrations.
At least three approaches are used to either increase the assay sensitivity or the assay signal.
Km values for (−)-cocaine are determined at 37° C. Vmax and Km values are calculated using Sigma Plot (Jandel Scientific, San Rafael, Calif.). The number of active sites of butyrylcholinesterase is determined by the method of residual activity using echothiopate iodide or diisopropyl fluorophosphates as titrants, as described previously by Masson et al., Biochemistry 36: 2266-2277 (1997). […] Purified human butyrylcholinesterase is used as the standard for the ELISA quantitation assay. The catalytic rate constant, kcat, is calculated by dividing Vmax by the concentration of active sites.

B1: Y332S (protein)
chain: EDDIIIATKNGKVRGMNLTVFGGTVTAFLGIPYAQPPLGRLRFKKPQSLTKWSDIWNATKYANSCCQNIDQSFPGFHGSEMWNPNTDLSEDCLYLNVWIPAPKPKNATVLIWIYGGGFQTGTSSLHVYDGKFLARVERVIVVSMNYRVGALGFLALPGNPEAPGNMGLFDQQLALQWVQKNIAAFGGNPKSVTLFGESAGAASVSLHLLSPGSHSLFTRAILQSGSFNAPWAVTSLYEARNRTLNLAKLTGCSRENETEIIKCLRNKDPQEILLNEAFVVPYGTPLSVNFGPTVDGDFLTDMPDILLELGQFKKTQILVGVNKDEGTAFLVSGAPGFSKDNNSIITRKEFQEGLKIFFPGVSEFGKESILFHYTDWVDDQRPENYREALGDVVGDYNFICPALEFTKKFSEWGNNAFFYYFEHRSSKLPWPEWMGVMHGYEIEFVFGLPLERRDNYTKAEEILSRSIVKRWANFAKYGNPNETQNNSTSWPVFKSTEQKYLTLNTESTRIMTKLRAQQCRFWTSFFPKVLEMTGNIDEAEWEWKAGFHRWNNYMMDWKNQFNDYTSKKESCVGL
modifications: Butyrylcholinesterase variant
cocaine hydrolysis activity compared to butyrylcholinesterase (in words): increased cocaine hydrolysis activity
cocaine hydrolysis activity compared to butyrylcholinesterase (in words) (listed as SEQ ID NO: 20): increased cocaine hydrolysis activity
cocaine hydrolysis activity compared to butyrylcholinesterase (in words) (listed as Y322S): enhanced cocaine hydrolase activity

B2: Y332P (protein)
chain: EDDIIIATKNGKVRGMNLTVFGGTVTAFLGIPYAQPPLGRLRFKKPQSLTKWSDIWNATKYANSCCQNIDQSFPGFHGSEMWNPNTDLSEDCLYLNVWIPAPKPKNATVLIWIYGGGFQTGTSSLHVYDGKFLARVERVIVVSMNYRVGALGFLALPGNPEAPGNMGLFDQQLALQWVQKNIAAFGGNPKSVTLFGESAGAASVSLHLLSPGSHSLFTRAILQSGSFNAPWAVTSLYEARNRTLNLAKLTGCSRENETEIIKCLRNKDPQEILLNEAFVVPYGTPLSVNFGPTVDGDFLTDMPDILLELGQFKKTQILVGVNKDEGTAFLVPGAPGFSKDNNSIITRKEFQEGLKIFFPGVSEFGKESILFHYTDWVDDQRPENYREALGDVVGDYNFICPALEFTKKFSEWGNNAFFYYFEHRSSKLPWPEWMGVMHGYEIEFVFGLPLERRDNYTKAEEILSRSIVKRWANFAKYGNPNETQNNSTSWPVFKSTEQKYLTLNTESTRIMTKLRAQQCRFWTSFFPKVLEMTGNIDEAEWEWKAGFHRWNNYMMDWKNQFNDYTSKKESCVGL
modifications: Butyrylcholinesterase variant
cocaine hydrolysis activity compared to butyrylcholinesterase (in words): enhanced cocaine hydrolase activity; also recorded: increased cocaine hydrolysis activity
cocaine hydrolysis activity compared to butyrylcholinesterase (in words) (listed as SEQ ID NO: 24): increased cocaine hydrolysis activity

B3: F227A (protein)
chain: EDDIIIATKNGKVRGMNLTVFGGTVTAFLGIPYAQPPLGRLRFKKPQSLTKWSDIWNATKYANSCCQNIDQSFPGFHGSEMWNPNTDLSEDCLYLNVWIPAPKPKNATVLIWIYGGGFQTGTSSLHVYDGKFLARVERVIVVSMNYRVGALGFLALPGNPEAPGNMGLFDQQLALQWVQKNIAAFGGNPKSVTLFGESAGAASVSLHLLSPGSHSLFTRAILQSGSANAPWAVTSLYEARNRTLNLAKLTGCSRENETEIIKCLRNKDPQEILLNEAFVVPYGTPLSVNFGPTVDGDFLTDMPDILLELGQFKKTQILVGVNKDEGTAFLVYGAPGFSKDNNSIITRKEFQEGLKIFFPGVSEFGKESILFHYTDWVDDQRPENYREALGDVVGDYNFICPALEFTKKFSEWGNNAFFYYFEHRSSKLPWPEWMGVMHGYEIEFVFGLPLERRDNYTKAEEILSRSIVKRWANFAKYGNPNETQNNSTSWPVFKSTEQKYLTLNTESTRIMTKLRAQQCRFWTSFFPKVLEMTGNIDEAEWEWKAGFHRWNNYMMDWKNQFNDYTSKKESCVGL
modifications: Butyrylcholinesterase variant
cocaine hydrolysis activity compared to butyrylcholinesterase (in words): enhanced cocaine hydrolase activity
increase in cocaine hydrolysis activity relative to butyrylcholinesterase (compared to human butyrylcholinesterase SEQ ID NO: 44, approximate values): four
Relative Activity of butyrylcholinesterase variants (WT = 1) with enhanced cocaine hydrolase activity (relative to wild-type = 1, catalytic efficiency (Vmax/Km), [3H]-cocaine microtiter assay): 4.1

B4: V331L (protein)
chain: EDDIIIATKNGKVRGMNLTVFGGTVTAFLGIPYAQPPLGRLRFKKPQSLTKWSDIWNATKYANSCCQNIDQSFPGFHGSEMWNPNTDLSEDCLYLNVWIPAPKPKNATVLIWIYGGGFQTGTSSLHVYDGKFLARVERVIVVSMNYRVGALGFLALPGNPEAPGNMGLFDQQLALQWVQKNIAAFGGNPKSVTLFGESAGAASVSLHLLSPGSHSLFTRAILQSGSFNAPWAVTSLYEARNRTLNLAKLTGCSRENETEIIKCLRNKDPQEILLNEAFVVPYGTPLSVNFGPTVDGDFLTDMPDILLELGQFKKTQILVGVNKDEGTAFLLYGAPGFSKDNNSIITRKEFQEGLKIFFPGVSEFGKESILFHYTDWVDDQRPENYREALGDVVGDYNFICPALEFTKKFSEWGNNAFFYYFEHRSSKLPWPEWMGVMHGYEIEFVFGLPLERRDNYTKAEEILSRSIVKRWANFAKYGNPNETQNNSTSWPVFKSTEQKYLTLNTESTRIMTKLRAQQCRFWTSFFPKVLEMTGNIDEAEWEWKAGFHRWNNYMMDWKNQFNDYTSKKESCVGL
modifications: Butyrylcholinesterase variant
cocaine hydrolysis activity compared to butyrylcholinesterase (in words): enhanced cocaine hydrolase activity; also recorded: increased cocaine hydrolysis activity
cocaine hydrolysis activity compared to butyrylcholinesterase (in words) (listed as SEQ ID NO: 26): increased cocaine hydrolysis activity

B5: Y332M (protein)
chain: EDDIIIATKNGKVRGMNLTVFGGTVTAFLGIPYAQPPLGRLRFKKPQSLTKWSDIWNATKYANSCCQNIDQSFPGFHGSEMWNPNTDLSEDCLYLNVWIPAPKPKNATVLIWIYGGGFQTGTSSLHVYDGKFLARVERVIVVSMNYRVGALGFLALPGNPEAPGNMGLFDQQLALQWVQKNIAAFGGNPKSVTLFGESAGAASVSLHLLSPGSHSLFTRAILQSGSFNAPWAVTSLYEARNRTLNLAKLTGCSRENETEIIKCLRNKDPQEILLNEAFVVPYGTPLSVNFGPTVDGDFLTDMPDILLELGQFKKTQILVGVNKDEGTAFLVMGAPGFSKDNNSIITRKEFQEGLKIFFPGVSEFGKESILFHYTDWVDDQRPENYREALGDVVGDYNFICPALEFTKKFSEWGNNAFFYYFEHRSSKLPWPEWMGVMHGYEIEFVFGLPLERRDNYTKAEEILSRSIVKRWANFAKYGNPNETQNNSTSWPVFKSTEQKYLTLNTESTRIMTKLRAQQCRFWTSFFPKVLEMTGNIDEAEWEWKAGFHRWNNYMMDWKNQFNDYTSKKESCVGL
modifications: Butyrylcholinesterase variant
cocaine hydrolysis activity compared to butyrylcholinesterase (in words): enhanced cocaine hydrolase activity; also recorded: increased cocaine hydrolysis activity
cocaine hydrolysis activity compared to butyrylcholinesterase (in words) (listed as SEQ ID NO: 22): increased cocaine hydrolysis activity

— patent publication US20060263345A1, “Butyrylcholinesterase variant polypeptides with increased catalytic efficiency and methods of use” (priority 2003, published 2006)
